Earlier results in paper PMC4353500.

Columns and labels:
[1] = target: Cavβ4b (UniProt D4A055)
[2] = target: Cavβ2a (UniProt Q08289)
Sequence of Cavβ2a (Q08289 whole entry): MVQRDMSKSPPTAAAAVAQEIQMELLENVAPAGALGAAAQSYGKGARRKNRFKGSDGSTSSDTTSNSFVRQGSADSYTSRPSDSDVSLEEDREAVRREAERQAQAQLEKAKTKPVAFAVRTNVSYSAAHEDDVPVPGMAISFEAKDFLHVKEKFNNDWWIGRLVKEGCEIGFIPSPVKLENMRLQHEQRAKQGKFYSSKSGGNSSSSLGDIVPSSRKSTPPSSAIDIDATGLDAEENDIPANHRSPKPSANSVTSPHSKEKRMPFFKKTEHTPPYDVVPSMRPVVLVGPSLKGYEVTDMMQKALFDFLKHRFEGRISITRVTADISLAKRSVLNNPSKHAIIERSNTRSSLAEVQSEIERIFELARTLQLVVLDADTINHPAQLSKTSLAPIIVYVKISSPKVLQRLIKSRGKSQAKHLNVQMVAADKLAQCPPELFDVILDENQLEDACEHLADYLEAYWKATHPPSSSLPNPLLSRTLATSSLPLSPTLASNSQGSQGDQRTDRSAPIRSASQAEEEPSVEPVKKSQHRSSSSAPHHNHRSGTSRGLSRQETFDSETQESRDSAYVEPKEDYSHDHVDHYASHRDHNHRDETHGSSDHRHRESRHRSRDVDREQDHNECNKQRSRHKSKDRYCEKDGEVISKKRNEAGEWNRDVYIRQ

RIM1 CTD (from UniProt Q99NE5)
Kd [1]: 35 nM
Kd [2]: 35 nM
